Bridge positions count the residues as written; N and C are the ends. Square brackets hold non-standard residues; d marks the D form. Ends that are not written are not given here. Trp(1-Me) = Cn1cc(C[C@H](N)C(=O)O)c2ccccc21; NMeI = CC[C@H](C)[C@H](NC)C(=O)O; Orn = NCCC[C@H](N)C(=O)O; Sar = CNCC(=O)O

First the molecules themselves.
B1: Peptide 20: Tyr-Gly-[Cys-Val-Trp(Me)-Gln-Asp-Trp-Sar-Ala-His-Arg-Cys]-mIle-NH2 (peptide)
peptide: YGCV[Trp(1-Me)]QDW[Sar]AHRC[NMeI]-NH2
modifications: disulfide 3-13; N-terminus assumed
SMILES: CC[C@H](C)[C@@H](C(N)=O)N(C)C(=O)[C@@H]1CSSC[C@H](NC(=O)CNC(=O)[C@@H](N)Cc2ccc(O)cc2)C(=O)N[C@@H](C(C)C)C(=O)N[C@@H](Cc2cn(C)c3ccccc23)C(=O)N[C@@H](CCC(N)=O)C(=O)N[C@@H](CC(=O)O)C(=O)N[C@@H](Cc2c[nH]c3ccccc23)C(=O)N(C)CC(=O)N[C@@H](C)C(=O)N[C@@H](Cc2c[nH]cn2)C(=O)N[C@@H](CCCNC(=N)N)C(=O)N1
B2: Peptide 13: mAla-Ile-[Cys-Val-Trp(Me)-Gln-Asp-Trp-Sar-Ala-His-Arg-Cys]-mIle-NH2 (peptide)
peptide: AICVWQDWGAHRCI
modifications: mAla (N-methyl-Ala) at Xaa0; Trp(Me) at position 4; Sar at position 8; mIle at position 13; C-terminal -NH2; cyclic via Cys2-Cys12 disulfide (compstatin position numbering)
B3: Peptide 11: mVal-Ile-[Cys-Val-Trp(Me)-Gln-Asp-Trp-Sar-Ala-His-Arg-Cys]-mIle-NH2 (peptide)
peptide: VICVWQDWGAHRCI
modifications: mVal (N-methyl-Val) at Xaa0; Trp(Me) at position 4; Sar at position 8; mIle at position 13; C-terminal -NH2; cyclic via Cys2-Cys12 disulfide (compstatin position numbering)
B4: Compstatin 30 (Cp30): Sar-Ile-[Cys-Val-Trp(Me)-Gln-Asp-Trp-Sar-Ala-His-Arg-Cys]-mIle-NH2 (peptide)
peptide: GICVWQDWGAHRCI
modifications: Sar (N-methyl-Gly) at Xaa0 (N-terminus); Trp(Me) at position 4; Sar at position 8; mIle at position 13; C-terminal -NH2; cyclic via Cys2-Cys12 disulfide (compstatin position numbering)
B5: Peptide 6: Arg-Ile-[Cys-Val-Trp(Me)-Gln-Asp-Trp-Sar-Ala-His-Arg-Cys]-mIle-NH2 (peptide)
peptide: RICV[Trp(1-Me)]QDW[Sar]AHRC[NMeI]-NH2
modifications: disulfide 3-13; N-terminus assumed
SMILES: CC[C@H](C)[C@H](NC(=O)[C@@H](N)CCCNC(=N)N)C(=O)N[C@H]1CSSC[C@@H](C(=O)N(C)[C@H](C(N)=O)[C@@H](C)CC)NC(=O)[C@H](CCCNC(=N)N)NC(=O)[C@H](Cc2c[nH]cn2)NC(=O)[C@H](C)NC(=O)CN(C)C(=O)[C@H](Cc2c[nH]c3ccccc23)NC(=O)[C@H](CC(=O)O)NC(=O)[C@H](CCC(N)=O)NC(=O)[C@H](Cc2cn(C)c3ccccc23)NC(=O)[C@H](C(C)C)NC1=O
B6: Peptide 8: Thr-Ile-[Cys-Val-Trp(Me)-Gln-Asp-Trp-Sar-Ala-His-Arg-Cys]-mIle-NH2 (peptide)
peptide: TICV[Trp(1-Me)]QDW[Sar]AHRC[NMeI]-NH2
modifications: disulfide 3-13; N-terminus assumed
SMILES: CC[C@H](C)[C@H](NC(=O)[C@@H](N)[C@@H](C)O)C(=O)N[C@H]1CSSC[C@@H](C(=O)N(C)[C@H](C(N)=O)[C@@H](C)CC)NC(=O)[C@H](CCCNC(=N)N)NC(=O)[C@H](Cc2c[nH]cn2)NC(=O)[C@H](C)NC(=O)CN(C)C(=O)[C@H](Cc2c[nH]c3ccccc23)NC(=O)[C@H](CC(=O)O)NC(=O)[C@H](CCC(N)=O)NC(=O)[C@H](Cc2cn(C)c3ccccc23)NC(=O)[C@H](C(C)C)NC1=O
B7: Peptide 2: Gly-Ile-[Cys-Val-Trp(Me)-Gln-Asp-Trp-Sar-Ala-His-Arg-Cys]-mIle-NH2 (peptide)
peptide: GICV[Trp(1-Me)]QDW[Sar]AHRC[NMeI]-NH2
modifications: disulfide 3-13; N-terminus assumed
SMILES: CC[C@H](C)[C@H](NC(=O)CN)C(=O)N[C@H]1CSSC[C@@H](C(=O)N(C)[C@H](C(N)=O)[C@@H](C)CC)NC(=O)[C@H](CCCNC(=N)N)NC(=O)[C@H](Cc2c[nH]cn2)NC(=O)[C@H](C)NC(=O)CN(C)C(=O)[C@H](Cc2c[nH]c3ccccc23)NC(=O)[C@H](CC(=O)O)NC(=O)[C@H](CCC(N)=O)NC(=O)[C@H](Cc2cn(C)c3ccccc23)NC(=O)[C@H](C(C)C)NC1=O
B8: Peptide 5: Phe-Ile-[Cys-Val-Trp(Me)-Gln-Asp-Trp-Sar-Ala-His-Arg-Cys]-mIle-NH2 (peptide)
peptide: FICV[Trp(1-Me)]QDW[Sar]AHRC[NMeI]-NH2
modifications: disulfide 3-13; N-terminus assumed
SMILES: CC[C@H](C)[C@H](NC(=O)[C@@H](N)Cc1ccccc1)C(=O)N[C@H]1CSSC[C@@H](C(=O)N(C)[C@H](C(N)=O)[C@@H](C)CC)NC(=O)[C@H](CCCNC(=N)N)NC(=O)[C@H](Cc2c[nH]cn2)NC(=O)[C@H](C)NC(=O)CN(C)C(=O)[C@H](Cc2c[nH]c3ccccc23)NC(=O)[C@H](CC(=O)O)NC(=O)[C@H](CCC(N)=O)NC(=O)[C@H](Cc2cn(C)c3ccccc23)NC(=O)[C@H](C(C)C)NC1=O
B9: Peptide 19: Ac-Trp-[Cys-Val-Trp(Me)-Gln-Asp-Trp-Sar-Ala-His-Arg-Cys]-mIle-NH2 (peptide)
peptide: Ac-WCV[Trp(1-Me)]QDW[Sar]AHRC[NMeI]-NH2
modifications: disulfide 2-12
SMILES: CC[C@H](C)[C@@H](C(N)=O)N(C)C(=O)[C@@H]1CSSC[C@H](NC(=O)[C@H](Cc2c[nH]c3ccccc23)NC(C)=O)C(=O)N[C@@H](C(C)C)C(=O)N[C@@H](Cc2cn(C)c3ccccc23)C(=O)N[C@@H](CCC(N)=O)C(=O)N[C@@H](CC(=O)O)C(=O)N[C@@H](Cc2c[nH]c3ccccc23)C(=O)N(C)CC(=O)N[C@@H](C)C(=O)N[C@@H](Cc2c[nH]cn2)C(=O)N[C@@H](CCCNC(=N)N)C(=O)N1
B10: Peptide 10: mPhe-Ile-[Cys-Val-Trp(Me)-Gln-Asp-Trp-Sar-Ala-His-Arg-Cys]-mIle-NH2 (peptide)
peptide: FICVWQDWGAHRCI
modifications: mPhe (N-methyl-Phe) at Xaa0; Trp(Me) at position 4; Sar at position 8; mIle at position 13; C-terminal -NH2; cyclic via Cys2-Cys12 disulfide (compstatin position numbering)
B11: Peptide 12: mIle-Ile-[Cys-Val-Trp(Me)-Gln-Asp-Trp-Sar-Ala-His-Arg-Cys]-mIle-NH2 (peptide)
peptide: IICVWQDWGAHRCI
modifications: mIle (N-methyl-Ile; printed 'mlle') at Xaa0; Trp(Me) at position 4; Sar at position 8; mIle at position 13; C-terminal -NH2; cyclic via Cys2-Cys12 disulfide (compstatin position numbering)
B12: Peptide 1: Me-Ile-[Cys-Val-Trp(Me)-Gln-Asp-Trp-Sar-Ala-His-Arg-Cys]-mIle-NH2 (peptide)
peptide: Me-ICVWQDW[Sar]AHRC[NMeI]-NH2
modifications: disulfide 2-12; not fully specified (residue 4); printed as Me-Ile-[Cys-Val-Trp(Me)-Gln-Asp-Trp-Sar-Ala-His-Arg-Cys]-mIle-NH2
B13: Peptide 7: Trp-Ile-[Cys-Val-Trp(Me)-Gln-Asp-Trp-Sar-Ala-His-Arg-Cys]-mIle-NH2 (peptide)
peptide: WICV[Trp(1-Me)]QDW[Sar]AHRC[NMeI]-NH2
modifications: disulfide 3-13; N-terminus assumed
SMILES: CC[C@H](C)[C@H](NC(=O)[C@@H](N)Cc1c[nH]c2ccccc12)C(=O)N[C@H]1CSSC[C@@H](C(=O)N(C)[C@H](C(N)=O)[C@@H](C)CC)NC(=O)[C@H](CCCNC(=N)N)NC(=O)[C@H](Cc2c[nH]cn2)NC(=O)[C@H](C)NC(=O)CN(C)C(=O)[C@H](Cc2c[nH]c3ccccc23)NC(=O)[C@H](CC(=O)O)NC(=O)[C@H](CCC(N)=O)NC(=O)[C@H](Cc2cn(C)c3ccccc23)NC(=O)[C@H](C(C)C)NC1=O
B14: Cp40 (11Orn) (peptide)
peptide: [dY]ICV[Trp(1-Me)]QDW[Sar]AH[Orn]C[NMeI]-NH2
modifications: disulfide 3-13
B15: Cp40 (11Orn 6Asn) (peptide)
peptide: [dY]ICV[Trp(1-Me)]QNW[Sar]AH[Orn]C[NMeI]-NH2
modifications: disulfide 3-13
B16: Cp40 (6Asn) (peptide)
peptide: [dY]ICV[Trp(1-Me)]QNW[Sar]AHRC[NMeI]-NH2
modifications: disulfide 3-13; N-terminus assumed
SMILES: CC[C@H](C)[C@H](NC(=O)[C@H](N)Cc1ccc(O)cc1)C(=O)N[C@H]1CSSC[C@@H](C(=O)N(C)[C@H](C(N)=O)[C@@H](C)CC)NC(=O)[C@H](CCCNC(=N)N)NC(=O)[C@H](Cc2c[nH]cn2)NC(=O)[C@H](C)NC(=O)CN(C)C(=O)[C@H](Cc2c[nH]c3ccccc23)NC(=O)[C@H](CC(N)=O)NC(=O)[C@H](CCC(N)=O)NC(=O)[C@H](Cc2cn(C)c3ccccc23)NC(=O)[C@H](C(C)C)NC1=O

The first assay deals with C3b (biotinylated, captured site-specifically on a streptavidin chip) (UniProt P01024). Description: SPR on immobilised C3b.
As to B1, the fold weaker binding affinity than peptide 4 was 3 fold.

The next assay shares this target. The experiment in a line: SPR (Biacore 3000), single-cycle kinetics, biotinylated C3b on streptavidin chip, peptide as analyte, 1:1 Langmuir fit.
Consider B2, for which the Kd was 2.5 nM, the off-rate constant (koff) is 0.0034 s⁻¹ and the kon worked out at 1.4e+06 M⁻¹ s⁻¹.
For B3 the same measures were 1.9 nM, 0.0035 s⁻¹ and 1.8e+06 M⁻¹ s⁻¹.
For B4 the same measures were 1.6 nM, 0.0029 s⁻¹ and 1.9e+06 M⁻¹ s⁻¹.
The molecule B5 gave a Kd of 1.7 nM, a koff of 0.0029 s⁻¹ and a kon of 1.7e+06 M⁻¹ s⁻¹.
For B6 the same measures were 2.6 nM, 0.0031 s⁻¹ and 1.2e+06 M⁻¹ s⁻¹.
For B7 the same measures were 2.5 nM, 0.0029 s⁻¹ and 1.2e+06 M⁻¹ s⁻¹.
In turn, B1 had a Kd of 3.5 nM, a koff of 0.0073 s⁻¹ and a kon of 2.1e+06 M⁻¹ s⁻¹.
B8 came in with an equilibrium dissociation constant (Kd) of 1.6 nM, a koff of 0.0033 s⁻¹ and a kon of 2.1e+06 M⁻¹ s⁻¹.
As for B9, the Kd was 0.5 nM, the off-rate constant (koff) came to 0.0017 s⁻¹ and the on-rate constant (kon) turned out to be 3.8e+06 M⁻¹ s⁻¹.
For B10 the same measures were 1.8 nM, 0.0029 s⁻¹ and 1.6e+06 M⁻¹ s⁻¹.
For B11 the same measures were 2.4 nM, 0.0037 s⁻¹ and 1.6e+06 M⁻¹ s⁻¹.
For B12 the same measures were 18.6 nM, 0.0248 s⁻¹ and 1.3e+06 M⁻¹ s⁻¹.
With B13, the Kd is 2.2 nM, the koff worked out at 0.0036 s⁻¹ and the kon amounted to 1.6e+06 M⁻¹ s⁻¹.

The next assay shares this target. The experiment in a line: SPR, single-cycle kinetics on immobilised C3b (method of Example 2).
The molecule B14 came in with a Kd of 0.8 nM, a koff of 0.002 s⁻¹ and a kon of 2.5e+06 M⁻¹ s⁻¹.
For B15 the same measures were 1.5 nM, 0.0028 s⁻¹ and 2e+06 M⁻¹ s⁻¹.
Consider B16, for which the Kd is 3 nM, the koff turned out to be 0.0028 s⁻¹ and the kon was determined as 900000 M⁻¹ s⁻¹.

The values are drawn from patent US20210032291A1, “Compstatin Analogs With Improved Pharmacokinetic Properties” (The Trustees of the University of Pennsylvania, priority 2011, published 2021).
